{"source": "paper PMC3592866", "key": {"[1]": {"molecular_target": "pXqua MltBP-QUA1-C59S fusion protein (Xenopus laevis)", "assay": "SEC; analytical Superdex-200 PC 3.2/30 of MltBP-QUA1 fusion proteins; 20 mM Tris-HCl pH 7.9, 150 mM NaCl, 0.05% sodium azide; 50 uL at 1 mg/mL loaded; apparent aggregation numbers from calibration; monomer to dimer"}, "[2]": {"molecular_target": "pXqua MltBP-QUA1-C59S/R67A fusion protein (Xenopus laevis)", "assay": "SEC; analytical Superdex-200 PC 3.2/30 of MltBP-QUA1 fusion proteins; 20 mM Tris-HCl pH 7.9, 150 mM NaCl, 0.05% sodium azide; 50 uL at 1 mg/mL loaded; apparent aggregation numbers from calibration; monomer to dimer"}, "[3]": {"molecular_target": "pXqua MltBP-QUA1-C59S/R67A/E72G fusion protein (Xenopus laevis)", "assay": "SEC; analytical Superdex-200 PC 3.2/30 of MltBP-QUA1 fusion proteins; 20 mM Tris-HCl pH 7.9, 150 mM NaCl, 0.05% sodium azide; 50 uL at 1 mg/mL loaded; apparent aggregation numbers from calibration; monomer to dimer"}, "[4]": {"molecular_target": "pXqua MltBP-QUA1-C59S/R67E/E72R fusion protein (Xenopus laevis)", "assay": "SEC; analytical Superdex-200 PC 3.2/30 of MltBP-QUA1 fusion proteins; 20 mM Tris-HCl pH 7.9, 150 mM NaCl, 0.05% sodium azide; 50 uL at 1 mg/mL loaded; apparent aggregation numbers from calibration; monomer to dimer"}, "[5]": {"molecular_target": "pXqua QUA1-C59S (protease-liberated peptide) (Xenopus laevis)", "assay": "AUC; sedimentation equilibrium of released QUA1-C59S, global single species fits; monomer to dimer"}, "[6]": {"molecular_target": "wild type pXqua MltBP-QUA1 fusion protein (Xenopus laevis)", "assay": "SEC; analytical Superdex-200 PC 3.2/30 of MltBP-QUA1 fusion proteins; 20 mM Tris-HCl pH 7.9, 150 mM NaCl, 0.05% sodium azide; 50 uL at 1 mg/mL loaded; apparent aggregation numbers from calibration; monomer to dimer"}}, "note": "Values joined by “and” are separate entries in the source; they are usually repeats but may differ in a detail not shown here. Identical values can stand only once."}
{"substance": "pXqua MltBP-QUA1-C59S fusion protein (domain or fragment)", "values": [{"measurement": "AAN (apparent aggregation number)", "setting": "[1]", "result": 2.7}, {"measurement": "stoichiometry N", "setting": "[1]", "result": 2}]}
{"substance": "pXqua MltBP-QUA1-C59S/R67A fusion protein (domain or fragment)", "values": [{"measurement": "AAN (apparent aggregation number)", "setting": "[2]", "result": 1.7}, {"measurement": "percent of species in the dimeric state", "setting": "[2]", "result": 40, "unit": "%"}]}
{"substance": "pXqua MltBP-QUA1-C59S/R67A/E72G fusion protein (domain or fragment)", "values": [{"measurement": "fraction eluting in the dimer peak", "setting": "[3]", "result": 0.33}]}
{"substance": "pXqua MltBP-QUA1-C59S/R67E/E72R fusion protein (domain or fragment)", "values": [{"measurement": "AAN (apparent aggregation number)", "setting": "[4]", "result": 2.1}, {"measurement": "percent of species in the dimeric state", "setting": "[4]", "result": 70, "unit": "%"}]}
{"substance": "pXqua QUA1-C59S (protease-liberated peptide) (domain or fragment)", "values": [{"measurement": "stoichiometry N", "setting": "[5]", "result": 2}]}
{"substance": "wild type pXqua MltBP-QUA1 fusion protein (domain or fragment)", "values": [{"measurement": "stoichiometry N", "setting": "[6]", "result": "4 and 2"}]}
